Test results reported in US20230348607A1 (EXELIXIS, published 2023).

Key:
[1] = target: T1, rat AMHR-II-ECD-Fc (rat, UniProt Q62893 18-144); assay: ELISA, 100 ng per well coated Fc fusion, serially diluted 4A3
T1 construct: extracellular domain; Bought reagent (R&D Systems); also called rat AMHR-II receptor; not shown: Fc part of the bought fusion protein (R&D Systems)
T1 sequence (looked up): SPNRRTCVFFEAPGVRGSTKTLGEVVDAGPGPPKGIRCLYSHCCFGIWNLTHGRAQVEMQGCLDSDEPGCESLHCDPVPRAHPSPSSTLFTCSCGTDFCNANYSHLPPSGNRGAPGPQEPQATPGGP
Description: (§1) The binding capacity of the anti-AMHR-II 4A3 antibody was evaluated by ELISA. ELISA plates (96 wells, Maxisorp, Nunc) were coated overnight at +4° C. with 100 ng per well of human AMHR-II-ECD-Fc, rat AMHR-II-ECD-Fc or human ALK3-ECD-Fc (R&D Systems).
(§2) Coated plates were blocked with PBS-BSA 2% for 1 hour at 37° C. and washed three times with PBS-Tween20 0.05%. The anti-AMHR-II 4A3 antibody was serially diluted in PBST-BSA1% and incubated for 1 hour at 37° C. The bound anti-AMHR-II 4A3 was detected by adding HRP-conjugated F(ab′)2 goat anti-human F(ab′)2 fragment specific (Interchim) diluted at 1:10000 and incubated for one hour at 37° C. Revelation was done with TMB (Sigma) and the reaction was stopped by adding H₂SO₄ 1N (v:v). Absorbances were measured at 450 nm and binding data curves were analysed using GraphPad Prism 8 software.

[2] = target: T2, human ALK3-ECD-Fc (human, UniProt P36894 24-152); assay: as above
T2 construct: extracellular domain; Bought reagent (R&D Systems), used as negative control; also called human ALK3 receptor; negative control; not shown: Fc part of the bought fusion protein (R&D Systems)
T2 sequence (P36894 24-152): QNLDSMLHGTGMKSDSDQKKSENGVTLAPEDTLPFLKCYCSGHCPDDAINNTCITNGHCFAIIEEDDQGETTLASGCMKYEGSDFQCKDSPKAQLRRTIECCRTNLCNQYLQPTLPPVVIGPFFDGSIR
Description: as §1, §2

[3] = target: T3, human AMHR-II-ECD-Fc (human, UniProt Q16671 18-149); assay: ELISA, coated human AMHR-II-ECD-Fc, detection with HRP anti-human F(ab')2
T3 construct: Bought reagent (R&D Systems); Only its extracellular domain stood in the assay; also called extracellular domain of human AMHR-II receptor; not shown: Fc part of the bought fusion protein (R&D Systems)
Description: as §1, §2

[4] = target: T4, human AMHR-II receptor expressed at the surface of the COV434-AMHR-II transfected cell line (human, UniProt Q16671 18-573); assay: flow cytometry on COV434 AMHR-II transfected cells, 67 nM to 0.2 pM, one-site specific binding fit
T4 sequence: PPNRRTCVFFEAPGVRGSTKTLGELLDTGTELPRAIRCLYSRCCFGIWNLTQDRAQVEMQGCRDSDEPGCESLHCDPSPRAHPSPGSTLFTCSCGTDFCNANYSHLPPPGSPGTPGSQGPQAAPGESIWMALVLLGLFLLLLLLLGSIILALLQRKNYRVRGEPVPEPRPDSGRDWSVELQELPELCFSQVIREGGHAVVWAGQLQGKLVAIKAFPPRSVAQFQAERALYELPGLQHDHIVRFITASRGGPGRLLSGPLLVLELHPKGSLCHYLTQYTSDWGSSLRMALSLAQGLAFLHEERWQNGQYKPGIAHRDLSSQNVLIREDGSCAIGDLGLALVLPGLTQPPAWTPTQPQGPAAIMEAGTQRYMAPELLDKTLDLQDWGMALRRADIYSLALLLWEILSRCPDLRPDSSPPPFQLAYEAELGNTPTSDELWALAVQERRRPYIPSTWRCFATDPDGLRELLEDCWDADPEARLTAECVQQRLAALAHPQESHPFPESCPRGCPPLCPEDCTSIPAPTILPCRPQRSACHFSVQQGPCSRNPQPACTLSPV
Description: For Fluorescent-activated cell sorting (FACS) analysis, 3×10⁵ cells were incubated for 1 hour at 4° C. with 10 μg/ml of 4A3 antibody (FIG. 2A) or with a range of 4A3 concentrations (from 67 nM to 0.2 pM, FIG. 2B). After washes, Phycoerythrin-conjugated anti-human IgG antibody (1:200, Interchim) was added for 1 hour at 4° C. FACS analysis of the resuspended cells was done on a BD Accuri™ C6 flow cytometer (BD Bioscience). Binding affinity were determined using GraphPad Prism 8 with “one-site specific binding” fit equation.

binding result [1]: no binding | binding result [2]: no binding | EC50 [3]: 6 nM | Kd [4]: 2.1 nM
B1: anti-AMHR-II 4A3 antibody (antibody, human IgG1, lambda, V domains shown)
VH: EVQLVESGGSLVKPGGSLRLSCAASGFTFSNNAMNWVRQAPGKGLEWISYISGSSRYISYADFVKGRFTISRDNAKNSLYLQMNSLRAEDTAVYYCVRSSDDYFGGGMDVWGRGTLVTVSS
VL: QSVLTQPASVSGSPGQSITISCAGTSSDVGGDNDVSWYQQHPGKAPKLMIYYDSYRPSGVSNRFSGSKSGNTASLTISGLQAEDEADYYCSSSTYYSTRVFGGGTKLTVLG
notes: The tie is therefore indirect; 4A3 was detected with anti-human F(ab')2 and anti-human IgG secondary reagents; also called antibody 4A3; 4A3 antagonist antibody
